For orientation: pKd means the Kd on a negative log10 scale, so that one unit is a factor of ten. Low readings indicate a large Kd, high ones a small Kd. The Kd is the constant that tells how readily two partners part at equilibrium.

In assay [1] the target is CXCR4/LgBiT, genome-edited, in HEK293 cells (human (endogenous in HEK293)) (UniProt P61073).
For assay [2], the target named is CXCR4/LgBiT, transiently transfected in HEK293 cells (UniProt P61073).
Assay [3] addresses HiBiT/CXCR4, exogenously (stably) expressed in HEK293 cells (UniProt P61073).
Assay [4] addresses HiBiT/CXCR4, genome-edited, in HEK293 cells (human (endogenous in HEK293)) (UniProt P61073).
Assay [5] has as its target HiBiT/ACKR3, exogenously expressed in HEK293 cells (UniProt P25106).
Assay [6] addresses NLuc/ACKR3, exogenously (stably) expressed in HEK293 cells (UniProt P25106). In words: FRET or BRET; NanoBRET saturation binding on live cells (30,000 cells/well) with NLuc-tagged receptor; increasing CXCL12-AF647 for 60 min at 37°C in HBSS with 0.1% BSA; non-specific binding with AMD3100 (10 μM) for CXCR4 or CXCL11 (10 μM) for ACKR3; furimazine 10 μM. A general note: Bioluminescence resonance energy transfer reports proximity on the nanometre scale.

Assay [7] deals with NLuc/ACKR3, genome-edited, in HeLa cells (human (endogenous in HeLa)) (UniProt P25106). The assay is described as above.
Assay [8] has as its target NLuc/CXCR4, genome-edited, in HEK293 cells (human (endogenous in HEK293)) (UniProt P61073). The description is as above.
The target in assay [9] is NLuc/CXCR4, genome-edited, in HeLa cells (human (endogenous in HeLa)) (UniProt P61073). The assay is described as above.
Assay [10] addresses NLuc/ACKR3, exogenously (stably) expressed in HEK293 cells (UniProt P25106). As to the kind of experiment: FRET or BRET; NanoBRET saturation binding on membrane preparations (10 μg membrane protein per well) with NLuc-tagged receptor; increasing CXCL12-AF647 for 60 min at 37°C in HBSS with 0.1% BSA; non-specific binding with AMD3100 (10 μM) for CXCR4 or CXCL11 (10 μM) for ACKR3.

In assay [11] the target is NLuc/CXCR4, exogenously (stably) expressed in HEK293 cells (UniProt P61073). The description is as above.
Assay [12] deals with HiBiT/CXCR4, genome-edited, in HEK293 cells (human (endogenous in HEK293)) (UniProt P61073). In words: FRET or BRET; NanoBRET saturation binding on live HEK293 cells with genome-edited HiBiT/CXCR4; CXCL12-AF647 for 60 min at 37°C, then furimazine (10 μM) and purified cell-impermeant LgBiT (10 nM) added, so that only receptors at the plasma membrane are seen; non-specific binding with AMD3100 (10 μM).

For assay [13], the target named is HiBiT-Halotag, control peptide. As to the kind of experiment: split reporter (BiFC, NanoBiT); HiBiT-LgBiT complementation of purified proteins: 1 nM HiBiT-Halotag in HBSS with 0.1% BSA, increasing purified LgBiT; without AMD3100. In general terms: HiBiT is a short tag that completes a luciferase, so light tracks the accessible tagged protein.
Assay [14] has as its target HiBiT-Halotag, control peptide. As to the kind of experiment: split reporter (BiFC, NanoBiT); HiBiT-LgBiT complementation of purified proteins: 1 nM HiBiT-Halotag in HBSS with 0.1% BSA, increasing purified LgBiT; in the presence of AMD3100 (10 μM).
Assay [15] addresses HiBiT/CXCR4, genome-edited, in HEK293 cells (human (endogenous in HEK293)) (UniProt P61073). In words: split reporter (BiFC, NanoBiT); HiBiT-LgBiT complementation, saturation on live HEK293 cells with genome-edited HiBiT/CXCR4; increasing purified LgBiT; in the presence of AMD3100 (10 μM).
Assay [16] has the same target. As to the kind of experiment: split reporter (BiFC, NanoBiT); HiBiT-LgBiT complementation, saturation on membrane preparations (10 μg, 0.25 mg/ml saponin) from genome-edited HiBiT/CXCR4 HEK293 cells; increasing purified LgBiT; without AMD3100.
For assay [17] the target is unchanged. As to the kind of experiment: split reporter (BiFC, NanoBiT); HiBiT-LgBiT complementation, saturation on membrane preparations (10 μg, 0.25 mg/ml saponin) from genome-edited HiBiT/CXCR4 HEK293 cells; increasing purified LgBiT; in the presence of AMD3100 (10 μM).
Assay [18] has the same target. As to the kind of experiment: split reporter (BiFC, NanoBiT); HiBiT-LgBiT complementation, saturation on live HEK293 cells with genome-edited HiBiT-tagged receptor; increasing purified LgBiT for 30 min at 37°C in HBSS with 0.1% BSA; without AMD3100; non-specific luminescence on wild-type cells.
For assay [19], the target named is HiBiT/β2-adrenoceptor, genome-edited, in HEK293 cells (human (endogenous in HEK293)) (UniProt P07550). Described as above.

For the molecule “CXCL12 (from UniProt P48061 22-93) (ligand)”, in [1], the pEC50 of CXCL12 (0.3-300 nM) for the increase in NanoBiT luminescence (recruitment of genome-edited β-arrestin2/SmBiT, m14, to genome-edited CXCR4/LgBiT), about 5 min after ligand addition is 7.16 -log M and the pEC50 of CXCL12 (0.3-300 nM) for the increase in NanoBiT luminescence (recruitment of transiently transfected β-arrestin2/SmBiT, m13, to genome-edited CXCR4/LgBiT), about 5 min after ligand addition is 7.69 -log M. In addition, the pEC50 of CXCL12 (0.3-300 nM) for the increase in NanoBiT luminescence (recruitment of genome-edited β-arrestin2/SmBiT, m14, to transiently transfected CXCR4/LgBiT), about 5 min after ligand addition in assay [2] is 7.48 -log M. In addition, the pEC50 of CXCL12 for the decrease in luminescence (cell surface HiBiT/CXCR4 complemented with purified LgBiT, 10 nM) after 1 h at 37°C, live HEK293 cells stably overexpressing HiBiT/CXCR4 in assay [3] was 8.69 -log M. The pEC50 of CXCL12 for the decrease in luminescence (cell surface HiBiT/CXCR4 complemented with purified LgBiT, 10 nM) after 1 h at 37°C, live genome-edited HEK293 cells in [4] was 8.46 -log M. Further, the pEC50 of CXCL12 for the increase in luminescence of live HEK293 cells with exogenous HiBiT/ACKR3 complemented with purified LgBiT in assay [5] is 8.23 -log M.
Turning to “CXCL12-AF647 (from UniProt P48061 22-93) (ligand)”, the pKd was 8.12 -log M in [6]; 8.77 -log M in assay [7]; 7.5 -log M in assay [8]; 7.58 -log M in assay [9]; 8.83 -log M in [10]; 7.55 -log M in [11]. Moreover, in assay [12], the pKd was 7.49 -log M.
Turning to Purified LgBiT (domain or fragment), the Kd in assay [13] turned out to be 6.99 nM; in [14], 7.73 nM; in [15] it was 58.5 nM; in assay [16], 180 nM; in assay [17], 115 nM; in assay [18], 230 nM. In addition, in assay [19], the Kd came out at 54.5 nM.

B1: CXCL11 (ligand)
chain: FPMFKRGRCLCIGPGVKAVKVADIEKASIMYPSNNCDKIEVIITLKENKGQRCLNPKSKQARLIIKKVERKNF
As to B1, the pEC50 of CXCL11 for the increase in luminescence of live HEK293 cells with exogenous HiBiT/ACKR3 complemented with purified LgBiT in assay [5] is 7.48 -log M.

The values above are taken from article PMC7242902.
